The series concerns the molecule itself. Kind of series: cross-linking.

B1: Flag-PKM2 K305R (enzyme)
chain: not shown
With B1, the binding result is “binds”.

For the origin of these results see paper PMC4930699 (Cancer research, 2016).
